These results are taken from patent US20240084042A1 (Genentech, published 2024).

The target of assay [1] is T1, human KLK5 (human, UniProt Q9Y337 67-293).
T1 construct: also called huKLK5; KLK5 AMC
T1 sequence: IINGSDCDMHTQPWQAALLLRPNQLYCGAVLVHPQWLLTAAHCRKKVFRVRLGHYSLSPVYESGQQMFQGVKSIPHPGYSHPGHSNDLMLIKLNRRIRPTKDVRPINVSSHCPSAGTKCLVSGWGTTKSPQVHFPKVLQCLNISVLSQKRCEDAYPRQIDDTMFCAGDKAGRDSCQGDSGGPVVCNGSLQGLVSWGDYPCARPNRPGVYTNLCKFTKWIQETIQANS
As to the kind of experiment: SPR, one-armed monovalent antibody.

Assay [2] has as its target T2, cynomolgus monkey KLK5 (cynomolgus monkey, UniProt Q9Y337 67-293 (human entry)).
T2 construct: also called cyno KLK5
T2 chain: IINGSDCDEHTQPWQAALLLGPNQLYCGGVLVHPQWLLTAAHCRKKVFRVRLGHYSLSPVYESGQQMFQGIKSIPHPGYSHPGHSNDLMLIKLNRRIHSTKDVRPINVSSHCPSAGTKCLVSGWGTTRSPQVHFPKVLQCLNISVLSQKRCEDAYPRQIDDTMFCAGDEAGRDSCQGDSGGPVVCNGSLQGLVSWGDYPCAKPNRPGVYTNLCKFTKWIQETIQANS
Kind of assay: SPR, one-armed monovalent antibody.

B1: OA.hu.9H5.H14L4.G54A.G98Q.H89V.S95Y (antibody, V domains shown)
VH: EVQLVESGGGLIQPGGSLRLSCAASGFSLSSYGVSWVRKAPGKGLEYVGFIGSAGFAYYASWAKSRFTISRDNSKNTLYLQMNSLRAEDTAVYYCARDDVQGGKSLDIWGQGTLVTVSS
VL: DIQMTQSPSSLSASVGDRVTITCQASQSISSYLSWYQEKPGKAPKLLIYSASTLASGVPSRFSGSGSGTDFTLTISSLQPEDFATYYCVQDYTSYNVDNTFGGGTKVEIK
notes: One-armed (OA) monovalent anti-KLK5 antibody with a human IgG1 Fc, with Q38E/Q39K; constant regions and dummy Fc chain not specified
In assay [1], B1 gave a Kd of 0.0121 nM, a koff of 2.39e-05 s⁻¹ and a kon of 1.98e+06 M⁻¹ s⁻¹. In assay [2], binding was characterised by a dissociation constant (Kd) of 0.0146 nM, the koff worked out at 5.75e-05 s⁻¹ and the association rate constant (kon) worked out at 3.95e+06 M⁻¹ s⁻¹.

B2: OA.hu.9H5.H14L4.G54A.G98Q.H89V (antibody, V domains shown)
VH: EVQLVESGGGLIQPGGSLRLSCAASGFSLSSYGVSWVRKAPGKGLEYVGFIGSAGFAYYASWAKSRFTISRDNSKNTLYLQMNSLRAEDTAVYYCARDDVQGGKSLDIWGQGTLVTVSS
VL: DIQMTQSPSSLSASVGDRVTITCQASQSISSYLSWYQEKPGKAPKLLIYSASTLASGVPSRFSGSGSGTDFTLTISSLQPEDFATYYCVQDYTSSNVDNTFGGGTKVEIK
notes: as for B1
In assay [1], B2 displayed a Kd of 0.000348 nM, a koff of 2.97e-06 s⁻¹ and a kon of 8.54e+06 M⁻¹ s⁻¹. In addition, in assay [2], the affinity, expressed as Kd, was 0.00298 nM; the off-rate (koff) worked out at 6.52e-05 s⁻¹; the on-rate constant (kon) amounted to 2.19e+07 M⁻¹ s⁻¹.

B3: OA.hu.9H5.H14L4.G98Q.H89V (antibody, V domains shown)
VH: EVQLVESGGGLIQPGGSLRLSCAASGFSLSSYGVSWVRKAPGKGLEYVGFIGSGGFAYYASWAKSRFTISRDNSKNTLYLQMNSLRAEDTAVYYCARDDVQGGKSLDIWGQGTLVTVSS
VL: DIQMTQSPSSLSASVGDRVTITCQASQSISSYLSWYQEKPGKAPKLLIYSASTLASGVPSRFSGSGSGTDFTLTISSLQPEDFATYYCVQDYTSSNVDNTFGGGTKVEIK
notes: as for B1
In assay [1], B3 showed a Kd of 0.0186 nM, a koff of 4.46e-05 s⁻¹ and a kon of 2.4e+06 M⁻¹ s⁻¹. In assay [2], this molecule gave a dissociation constant (Kd) of 0.00978 nM, a koff of 0.000145 s⁻¹ and a kon of 1.48e+07 M⁻¹ s⁻¹.

B4: OA.hu.9H5.H14L4.G98Q.H89V.S95Y (antibody, V domains shown)
VH: EVQLVESGGGLIQPGGSLRLSCAASGFSLSSYGVSWVRKAPGKGLEYVGFIGSGGFAYYASWAKSRFTISRDNSKNTLYLQMNSLRAEDTAVYYCARDDVQGGKSLDIWGQGTLVTVSS
VL: DIQMTQSPSSLSASVGDRVTITCQASQSISSYLSWYQEKPGKAPKLLIYSASTLASGVPSRFSGSGSGTDFTLTISSLQPEDFATYYCVQDYTSYNVDNTFGGGTKVEIK
notes: as for B1
Regarding B4, in assay [1], the Kd was 0.0199 nM, the koff turned out to be 4.91e-05 s⁻¹ and the kon was determined as 2.47e+06 M⁻¹ s⁻¹. For the same molecule, in assay [2], the Kd amounted to 0.033 nM, the koff came to 0.000133 s⁻¹ and the kon came to 4.02e+06 M⁻¹ s⁻¹.

B5: OA.hu.9H5.H14L4.G54A.H89V.S95Y (antibody, V domains shown)
VH: EVQLVESGGGLIQPGGSLRLSCAASGFSLSSYGVSWVRKAPGKGLEYVGFIGSAGFAYYASWAKSRFTISRDNSKNTLYLQMNSLRAEDTAVYYCARDDVGGGKSLDIWGQGTLVTVSS
VL: DIQMTQSPSSLSASVGDRVTITCQASQSISSYLSWYQEKPGKAPKLLIYSASTLASGVPSRFSGSGSGTDFTLTISSLQPEDFATYYCVQDYTSYNVDNTFGGGTKVEIK
notes: as for B1
Regarding B5, in assay [1], the affinity, expressed as Kd, was 0.0196 nM; the koff amounted to 1.37e-05 s⁻¹; the kon turned out to be 699000 M⁻¹ s⁻¹. In assay [2], this molecule displayed a Kd of 0.0172 nM, a koff of 7.36e-05 s⁻¹ and a kon of 4.28e+06 M⁻¹ s⁻¹.

B6: OA.hu.9H5.H14L4 (antibody, V domains shown)
VH: EVQLVESGGGLIQPGGSLRLSCAASGFSLSSYGVSWVRKAPGKGLEYVGFIGSGGFAYYASWAKSRFTISRDNSKNTLYLQMNSLRAEDTAVYYCARDDVGGGKSLDIWGQGTLVTVSS
VL: DIQMTQSPSSLSASVGDRVTITCQASQSISSYLSWYQEKPGKAPKLLIYSASTLASGVPSRFSGSGSGTDFTLTISSLQPEDFATYYCHQDYTSSNVDNTFGGGTKVEIK
notes: as for B1
In assay [1], B6 registered a Kd of 0.254 nM, a koff of 0.000272 s⁻¹ and a kon of 1.07e+06 M⁻¹ s⁻¹. In assay [2], this molecule yielded a Kd of 0.0623 nM, a koff of 0.000697 s⁻¹ and a kon of 1.12e+07 M⁻¹ s⁻¹.

B7: OA.hu.9H5.H14L4.G54A.G98Q.S95Y (antibody, V domains shown)
VH: EVQLVESGGGLIQPGGSLRLSCAASGFSLSSYGVSWVRKAPGKGLEYVGFIGSAGFAYYASWAKSRFTISRDNSKNTLYLQMNSLRAEDTAVYYCARDDVQGGKSLDIWGQGTLVTVSS
VL: DIQMTQSPSSLSASVGDRVTITCQASQSISSYLSWYQEKPGKAPKLLIYSASTLASGVPSRFSGSGSGTDFTLTISSLQPEDFATYYCHQDYTSYNVDNTFGGGTKVEIK
notes: as for B1
As for B7, in assay [1], binding was put at a Kd of 0.00994 nM, the off-rate constant (koff) stood at 2.71e-05 s⁻¹ and the kon worked out at 2.73e+06 M⁻¹ s⁻¹. In assay [2], this molecule came in with a Kd of 0.0154 nM, a koff of 9.18e-05 s⁻¹ and a kon of 5.97e+06 M⁻¹ s⁻¹.

B8: OA.hu.9H5.H14L4.G54A.S95Y (antibody, V domains shown)
VH: EVQLVESGGGLIQPGGSLRLSCAASGFSLSSYGVSWVRKAPGKGLEYVGFIGSAGFAYYASWAKSRFTISRDNSKNTLYLQMNSLRAEDTAVYYCARDDVGGGKSLDIWGQGTLVTVSS
VL: DIQMTQSPSSLSASVGDRVTITCQASQSISSYLSWYQEKPGKAPKLLIYSASTLASGVPSRFSGSGSGTDFTLTISSLQPEDFATYYCHQDYTSYNVDNTFGGGTKVEIK
notes: as for B1
In assay [1], B8 had a Kd of 0.0162 nM, a koff of 1.6e-05 s⁻¹ and a kon of 992000 M⁻¹ s⁻¹. In assay [2], this molecule yielded a Kd of 0.0175 nM, a koff of 8.44e-05 s⁻¹ and a kon of 4.82e+06 M⁻¹ s⁻¹.

B9: OA.hu.9H5.H14L4.G54A.H89V (antibody, V domains shown)
VH: EVQLVESGGGLIQPGGSLRLSCAASGFSLSSYGVSWVRKAPGKGLEYVGFIGSAGFAYYASWAKSRFTISRDNSKNTLYLQMNSLRAEDTAVYYCARDDVGGGKSLDIWGQGTLVTVSS
VL: DIQMTQSPSSLSASVGDRVTITCQASQSISSYLSWYQEKPGKAPKLLIYSASTLASGVPSRFSGSGSGTDFTLTISSLQPEDFATYYCVQDYTSSNVDNTFGGGTKVEIK
notes: as for B1
In assay [1], B9 registered a Kd of 0.0102 nM, a koff of 3.85e-05 s⁻¹ and a kon of 3.79e+06 M⁻¹ s⁻¹. In assay [2], binding was put at a Kd of 0.00893 nM, the koff came out at 0.00011 s⁻¹ and the kon came to 1.24e+07 M⁻¹ s⁻¹.

B10: OA.hu.9H5.H14L4.G98Q.S95Y (antibody, V domains shown)
VH: EVQLVESGGGLIQPGGSLRLSCAASGFSLSSYGVSWVRKAPGKGLEYVGFIGSGGFAYYASWAKSRFTISRDNSKNTLYLQMNSLRAEDTAVYYCARDDVQGGKSLDIWGQGTLVTVSS
VL: DIQMTQSPSSLSASVGDRVTITCQASQSISSYLSWYQEKPGKAPKLLIYSASTLASGVPSRFSGSGSGTDFTLTISSLQPEDFATYYCHQDYTSYNVDNTFGGGTKVEIK
notes: as for B1
In assay [1], B10 returned a Kd of 0.0502 nM, a koff of 3.94e-05 s⁻¹ and a kon of 785000 M⁻¹ s⁻¹. Further, in assay [2], binding was characterised by a dissociation constant (Kd) of 0.0361 nM, the koff is 0.000145 s⁻¹ and the kon was 4.02e+06 M⁻¹ s⁻¹.
